Test results taken from article PMC6448830 (2019).

What was measured:
Test in all cases: SPR
[1] = biological target: T1, human 2B4-Fc fusion protein (human, UniProt Q9BZW8 22-229)
T1 chain: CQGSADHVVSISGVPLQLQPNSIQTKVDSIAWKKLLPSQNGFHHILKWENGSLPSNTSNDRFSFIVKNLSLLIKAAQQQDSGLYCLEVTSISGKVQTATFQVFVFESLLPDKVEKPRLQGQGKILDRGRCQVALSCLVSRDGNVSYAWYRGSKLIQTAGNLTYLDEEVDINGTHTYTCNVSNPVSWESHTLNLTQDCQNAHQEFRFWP

[2] = biological target: T1, human 2B4-Fc fusion protein
[3] = biological target: T2, A. trivirgatus 2B4-Fc fusion protein (Aotus trivirgatus)
T2 chain: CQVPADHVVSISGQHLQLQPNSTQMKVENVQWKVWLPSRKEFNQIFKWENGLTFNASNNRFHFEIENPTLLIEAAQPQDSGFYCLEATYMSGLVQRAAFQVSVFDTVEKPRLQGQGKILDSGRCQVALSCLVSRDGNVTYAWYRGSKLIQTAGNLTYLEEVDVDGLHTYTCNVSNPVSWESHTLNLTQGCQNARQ

B1: human CD48-Fc fusion protein (Fc fusion)
chain: QGHLVHMTVVSGSNVTLNISESLPENYKQLTWFYTFDQKIVEWDSRKSKYFESKFKGRVRLDPQSGALYISKVQKEDNSTYIMRVLKKTGNEQEWKIKLQVLDPVPKPVIKIEKIEDMDDNCYLKLSCVIPGESVNYTWYGDKRPFPKELQNSVLETTLMPHNYSRCYTCQVSNSVSSKNGTVCLSPPCTLARS
modifications: biotin (biotinylated hCD48-Fc in the blocking assays)
Q: For B1, which koff [1] is on record?
A: 0.0224 s⁻¹

Q: What about the Kd [2] of the same binder?
A: 23 nM

B2: A. trivirgatus CD48-Fc fusion protein (Fc fusion)
chain: TSIQGNSVDVINAISGGNVTLNISESLPENVREITWFCTYHQKIADWDVKRLKYFDNKFKGRVRLDYQSGALYISKIQKEDANIYIMRVLKETMYEQEWKIRLQVFDPVPKPDIKIEKTAKVEDDCYLKLSCVIPDESVNYTWYGDKEPFPKEFQSGVLETTLKSQDYSRCYTCQVSNPVSSKNDTVCFS
modifications: biotin (biotinylated host CD48-Fc in the blocking ELISA)
Q: Which koff [3] does the source give for B2 here?
A: 0.000489 s⁻¹
